Assay [1] concerns the target T1, OSM specific receptor (oncostatin M receptor) on human WI-26 VA4 cells (human, UniProt Q99650 28-979).
T1 construct: whole, on cells; Endogenous receptor on cells; further subunits not described for this assay; also called specific OSM Receptor; WI-26 cells
T1 sequence (looked up): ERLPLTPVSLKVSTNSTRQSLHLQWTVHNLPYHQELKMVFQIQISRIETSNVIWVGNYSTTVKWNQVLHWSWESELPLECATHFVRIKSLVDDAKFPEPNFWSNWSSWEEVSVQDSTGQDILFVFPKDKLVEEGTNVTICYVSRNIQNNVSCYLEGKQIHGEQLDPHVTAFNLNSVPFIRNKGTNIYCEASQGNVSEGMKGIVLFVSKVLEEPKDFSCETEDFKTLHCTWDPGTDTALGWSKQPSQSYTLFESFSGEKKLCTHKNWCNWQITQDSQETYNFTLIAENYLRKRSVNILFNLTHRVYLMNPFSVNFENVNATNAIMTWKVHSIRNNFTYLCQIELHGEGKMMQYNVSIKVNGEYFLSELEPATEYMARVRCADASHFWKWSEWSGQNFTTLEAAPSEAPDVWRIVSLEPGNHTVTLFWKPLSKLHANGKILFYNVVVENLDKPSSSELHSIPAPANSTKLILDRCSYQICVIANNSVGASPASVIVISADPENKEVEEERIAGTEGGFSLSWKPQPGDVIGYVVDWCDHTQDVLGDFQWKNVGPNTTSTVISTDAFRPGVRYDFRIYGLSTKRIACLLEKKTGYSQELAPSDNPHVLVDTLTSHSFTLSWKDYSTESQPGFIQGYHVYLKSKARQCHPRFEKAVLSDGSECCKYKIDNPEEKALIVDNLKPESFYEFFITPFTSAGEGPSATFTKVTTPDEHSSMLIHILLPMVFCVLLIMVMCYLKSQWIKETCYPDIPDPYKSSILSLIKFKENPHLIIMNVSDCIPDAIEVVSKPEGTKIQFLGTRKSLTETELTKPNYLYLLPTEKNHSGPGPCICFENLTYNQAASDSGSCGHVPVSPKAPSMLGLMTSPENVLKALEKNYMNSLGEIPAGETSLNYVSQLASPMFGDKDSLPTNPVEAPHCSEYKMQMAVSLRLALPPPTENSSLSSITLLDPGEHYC
Kind of assay: competition for 125I-human OSM binding to WI-26 VA4 cells.

In assay [2] the target is T2, Mouse LIF receptor on mouse M1 cells (LIF receptor complex with gp130) (mouse, UniProt P42703 44-1092; Q00560 23-917).
T2 construct: whole, on cells; Endogenous receptor on M1 cells; also called LIFRβ
Description: conditioned medium competing for 125I-human LIF binding to M1 cells.

Assay [3] concerns the target T3, Human LIF receptor on human Hela cells (human, UniProt P42702 45-1097).
T3 construct: whole, on cells; Endogenous receptor on cells; other subunits (gp130) not examined on these cells
T3 sequence (looked up): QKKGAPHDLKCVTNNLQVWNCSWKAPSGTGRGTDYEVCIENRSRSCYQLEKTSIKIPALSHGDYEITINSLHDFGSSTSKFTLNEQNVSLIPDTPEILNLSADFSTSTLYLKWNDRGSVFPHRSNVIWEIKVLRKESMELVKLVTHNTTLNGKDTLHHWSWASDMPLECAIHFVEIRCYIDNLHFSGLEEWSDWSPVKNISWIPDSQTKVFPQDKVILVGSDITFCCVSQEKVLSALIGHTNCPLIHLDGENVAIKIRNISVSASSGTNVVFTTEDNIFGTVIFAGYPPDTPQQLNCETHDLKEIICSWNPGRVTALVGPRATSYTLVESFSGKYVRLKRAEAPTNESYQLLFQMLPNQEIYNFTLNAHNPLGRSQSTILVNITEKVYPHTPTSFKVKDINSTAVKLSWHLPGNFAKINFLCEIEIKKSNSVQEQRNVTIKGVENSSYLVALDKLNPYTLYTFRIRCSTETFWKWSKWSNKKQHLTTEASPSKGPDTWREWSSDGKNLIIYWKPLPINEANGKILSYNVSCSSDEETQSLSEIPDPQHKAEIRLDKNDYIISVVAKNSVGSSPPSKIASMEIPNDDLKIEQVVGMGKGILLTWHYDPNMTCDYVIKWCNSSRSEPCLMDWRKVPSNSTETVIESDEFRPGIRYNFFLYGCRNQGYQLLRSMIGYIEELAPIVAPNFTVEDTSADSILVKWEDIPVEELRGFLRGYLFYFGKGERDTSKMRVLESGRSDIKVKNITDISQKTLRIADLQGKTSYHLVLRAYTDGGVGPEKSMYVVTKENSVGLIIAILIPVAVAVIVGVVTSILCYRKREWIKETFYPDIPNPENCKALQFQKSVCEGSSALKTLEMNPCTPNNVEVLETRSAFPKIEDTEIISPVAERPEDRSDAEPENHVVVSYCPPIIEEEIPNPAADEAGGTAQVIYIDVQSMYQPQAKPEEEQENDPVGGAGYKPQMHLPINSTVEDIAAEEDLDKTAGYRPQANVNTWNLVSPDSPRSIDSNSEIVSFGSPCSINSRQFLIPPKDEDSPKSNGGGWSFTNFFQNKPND
Kind of assay: conditioned medium competing for 125I-human LIF binding to Hela cells.

T2 sequence (Q00560 23-917, one chain of several): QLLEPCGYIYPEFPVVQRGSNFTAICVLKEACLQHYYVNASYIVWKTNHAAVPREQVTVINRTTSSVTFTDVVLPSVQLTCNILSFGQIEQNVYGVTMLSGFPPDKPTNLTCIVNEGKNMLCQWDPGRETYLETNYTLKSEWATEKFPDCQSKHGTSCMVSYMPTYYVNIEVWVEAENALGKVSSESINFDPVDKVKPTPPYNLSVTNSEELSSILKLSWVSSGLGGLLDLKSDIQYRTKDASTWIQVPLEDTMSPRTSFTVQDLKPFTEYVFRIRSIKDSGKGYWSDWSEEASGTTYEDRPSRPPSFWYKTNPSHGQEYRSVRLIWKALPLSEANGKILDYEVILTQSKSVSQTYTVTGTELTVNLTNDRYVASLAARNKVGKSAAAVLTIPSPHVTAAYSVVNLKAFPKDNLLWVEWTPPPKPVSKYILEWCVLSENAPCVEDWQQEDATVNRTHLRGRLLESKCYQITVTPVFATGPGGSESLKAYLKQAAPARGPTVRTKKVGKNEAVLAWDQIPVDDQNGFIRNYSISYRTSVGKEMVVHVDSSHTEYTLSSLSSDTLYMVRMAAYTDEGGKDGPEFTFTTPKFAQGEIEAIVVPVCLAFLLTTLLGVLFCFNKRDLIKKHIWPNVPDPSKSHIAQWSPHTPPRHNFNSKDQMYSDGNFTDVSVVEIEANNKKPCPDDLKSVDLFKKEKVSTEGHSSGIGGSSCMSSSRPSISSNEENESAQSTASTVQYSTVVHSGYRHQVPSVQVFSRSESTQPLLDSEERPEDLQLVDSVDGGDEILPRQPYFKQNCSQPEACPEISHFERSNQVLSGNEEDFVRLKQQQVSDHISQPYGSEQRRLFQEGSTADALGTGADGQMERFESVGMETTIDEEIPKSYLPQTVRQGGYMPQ

B1: Human CT-1 (conditioned medium from human 293 cells transfected with pRK5.hu.CT1) (ligand)
chain: MSRREGSLEDPQTDSSVSLLPHLEAKIRQTHSLAHLLTKYAEQLLQEYVQLQGDPFGLPSFSPPRLPVAGLSAPAPSHAGLPVHERLRLDAAALAALPPLLDAVCRRQAELNPRAPRLLRRLEDAARQARALGAAVEALLAALGAANRGPRAEPPAATASAASATGVFPAKVLGLRVCGLYREWLSRTEGDLGQLLPGGSA
notes: Not purified: tested as clarified conditioned medium (concentrated 10 fold and added at a 3-fold dilution for Hela cells; unconcentrated for WI-26 cells); also called human cardiotrophin-1; hCT-1
With B1, the binding result in assay [1] is given as “no binding”; in assay [2], “binds”; in assay [3] it was “binds”.

Source of the values: US20040006018A1 (Genentech, published 2004).
